Results published in IntAct's records for PubMed 21903585.

B1: RAD51-associated protein 1 (Homo sapiens), Q96B01-2 (parent)
chain: MVRPVRHKKPVNYSQFDHSDSDDDFVSATVPLNKKSRTAPKELKQDKPKPNLNNLRKEEIPVQEKTPKKRMALDDKLYQRDLEVALALSVKELPTVTTNVQNSQDKSIEKHGSSKIETMNKSPHISNCSVASDYLDLDKITVEDDVGGVQGKRKAASKAAAQQRKILLEGSDGDSANDTEPDFAPGEDSEDDSDFCESEDNDEDFSMRKSKVKEIKKKEVKVKSPVEKKEKKSKSKCNALVTSVDSAPAAVKSESQSLPKKVSLSSDTTRKPLEIRSPSAESKKPKWVPPAASGGSRSSSSPLVVVSVKSPNQSLRLGLSRLARVKPLHPNATST
partner: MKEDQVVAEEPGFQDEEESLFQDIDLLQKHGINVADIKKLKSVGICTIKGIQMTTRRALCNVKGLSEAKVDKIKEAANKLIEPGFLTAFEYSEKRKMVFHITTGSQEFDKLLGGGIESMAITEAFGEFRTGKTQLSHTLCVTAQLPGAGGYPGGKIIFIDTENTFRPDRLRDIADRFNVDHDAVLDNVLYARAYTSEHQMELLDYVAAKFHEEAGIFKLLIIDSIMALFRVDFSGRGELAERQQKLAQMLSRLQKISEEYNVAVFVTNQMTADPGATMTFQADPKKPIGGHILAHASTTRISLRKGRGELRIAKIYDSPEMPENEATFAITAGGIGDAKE

Variants of: B1
Conditions: with dmc1_human DMC1, Q14565

Variant	effect of a mutation on the interaction
MVRPVRHKKPVNYSQFDHSDSDDDFVSATVPLNKKSRTAPKELKQDKPKPNLNNLRKEEIPVQEKTPKKRMALDDKLYQRDLEVALALSVKELPTVTTNVQNSQDKSIEKHGSSKIETMNKSPHISNCSVASDYLDLDKITVEDDVGGVQGKRKAASKAAAQQRKILLEGSDGDSANDTEPDFAPGEDSEDDSDFCESEDNDEDFSMRKSKVKEIKKKEVKVKSPVEKKEKKSKSKCNALVTSVDSAPAAVKSESQSLPKKVSLSSDTTRKPLEIRSPSAESKKPKAVPPAASGGSRSSSSPLVVVSVKSPNQSLRLGLSRLARVKPLHPNATST [W287A]	disrupting interaction
